Reference: article PMC10583499 (Science translational medicine, 2023)
Values belong to the binder of their own block, whether it stands above or below them.

What was measured:
[1] = target: T1, human NRP2 (v2, NM_003872.3), untagged, stably overexpressed on Expi293F cells (Expi293F-hNRP2) (human, UniProt O60462-3 21-926); test: flow cytometry on cells
T1 sequence (looked up): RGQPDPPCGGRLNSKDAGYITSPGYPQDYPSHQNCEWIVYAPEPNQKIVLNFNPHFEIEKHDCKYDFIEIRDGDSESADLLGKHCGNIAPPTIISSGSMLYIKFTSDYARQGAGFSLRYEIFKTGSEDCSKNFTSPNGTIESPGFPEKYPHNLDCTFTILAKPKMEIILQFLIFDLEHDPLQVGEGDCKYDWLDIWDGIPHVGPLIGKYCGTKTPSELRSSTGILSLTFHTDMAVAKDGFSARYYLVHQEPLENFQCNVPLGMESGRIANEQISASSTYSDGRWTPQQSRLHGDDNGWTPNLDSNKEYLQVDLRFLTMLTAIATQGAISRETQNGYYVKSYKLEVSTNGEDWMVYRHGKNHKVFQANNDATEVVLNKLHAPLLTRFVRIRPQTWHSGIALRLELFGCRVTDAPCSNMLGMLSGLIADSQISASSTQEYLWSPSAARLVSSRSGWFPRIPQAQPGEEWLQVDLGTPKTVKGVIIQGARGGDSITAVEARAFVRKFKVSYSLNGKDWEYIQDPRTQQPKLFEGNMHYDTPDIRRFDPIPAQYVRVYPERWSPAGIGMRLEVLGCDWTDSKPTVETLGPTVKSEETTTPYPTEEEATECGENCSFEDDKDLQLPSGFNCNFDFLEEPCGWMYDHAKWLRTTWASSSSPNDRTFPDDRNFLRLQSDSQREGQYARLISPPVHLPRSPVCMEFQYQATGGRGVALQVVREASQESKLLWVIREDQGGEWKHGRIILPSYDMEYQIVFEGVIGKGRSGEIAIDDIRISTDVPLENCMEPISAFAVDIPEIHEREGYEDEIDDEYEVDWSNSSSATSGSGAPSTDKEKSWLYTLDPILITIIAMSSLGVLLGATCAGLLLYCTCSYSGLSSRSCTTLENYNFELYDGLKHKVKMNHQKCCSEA

[2] = target: His-tagged hNRP2 (amino acids 146 to 595), a2b1b2 domains, for crystallization (human, UniProt O60462-3); test: crystal structure
[3] = target: biotinylated NRP2 (epitope binning) (Homo sapiens, UniProt O60462-3, biotin (site not stated)); test: BLI

EC50 [1]: 0.6 nM
B1: recombinant human VEGF-C, untagged (ligand, UniProt P49767 112-227, looked up)
chain: AHYNTEILKSIDNEWRKTQCMPREVCIDVGKEFGVATNTFFKPPCVSVYRCGGCCNSEGLQCMNTSTSYLSKTLFEITVPLSQGPKPVTISFANHTSCRCMSKLDVYRQVHSIIRR

binding result [2]: binds
B2: aNRP2-10 Fab (Fab, V domains shown)
VH: EVQLVQSGAEVKKPGATVKISCKVSGFNIKDYYIHWVQQAPGKGLEWMGRIDVEDDETKYAPKFQGRVTITADTSTDTAYMELSSLRSEDTAVYYCATPIYGSREAWFAYWGQGTLVTVSS
VL: DIQMTQSPSSLSASVGDRVTITCTASSSVSSSYLHWYQQKPGKAPKLLIYRTSNLASGVPSRFSGSGSGTDFTLTISSLQPEDFATYYCHQYYRSPPTFGGGTKVEIK

binding result [3]: binds
B3: Genentech aNRP2B antibody (antibody, V domains shown)
VH: EVQLVESGGGLVQPGGSLRLSCAASGFTITSSGIHWVRQAPGKGLEWVARITPYDGSTDYADSVKGRFTISADTSKNTAYLQMNSLRAEDTAVYYCARYRGRLLFDYWGQGTLVTVSS
VL: not shown
